Patent US7838294B2, “Inhibitors of the JNK signal transduction pathway and methods of use” (University of Massachusetts, priority 1997, dated 2010)

What was measured:
JNK1 [1] = target: T1, JNK1 (Homo sapiens, UniProt P45983); experiment: Co-immunoprecipitation of JIP-1 with JNK1 in transfected COS-1 cells; type: binding
T1 construct: expressed in transfected cells
Experimental: To test whether JIP-1 and JNK interact in vivo, co-immunoprecipitation analysis was performed. COS-1 cells were mock-transfected or transfected with JIP-1 and JNK1 expression vectors. Constructs expressing epitope (HA) tagged JNK1 have been described previously. Dérijard et al., supra; Sluss et al., supra; Gupta et al., supra. Mammalian JIP-1 expression vectors were constructed by subcloning the JIP-1 cDNA into the XbaI and HindIII sites of pCMV5 and the HindIII and EcoRI sites of pcDNA3 (Invitrogen Inc.). DNA encoding the Flag epitope, -Asp-Tyr-Lys-Asp-Asp-Asp-Asp-Lys- (SEQ ID NO:14) (Immunex Corp.), was inserted into JIP-1 cDNA between the DNA encoding the first two codons of JIP-1 using insertional overlapping polymerase chain reaction (PCR). Ho et al., Gene, 77:51 (1989). Bacterial JIP-1 expression vectors were constructed by subcloning PCR fragments of the JIP-1 cDNA into the EcoRI and XbaI sites of pGEX-3× (Pharmacia LKB Biotechnology Inc.). GST fusion proteins were purified by affinity chromatography on GSH-agarose as described previously. Smith et al., Gene, 67:31 (1988). […]
For the co-immunoprecipitation experiments, transfected or mock-transfected cells were irradiated with or without UV-C (40 J/m^2) and incubated for one hour. […] Immune complexes were detected with a second antibody coupled to horseradish peroxidase and enhanced chemiluminescence (Amersham International PLC).

p38 = experiment: Immune complex protein kinase assay: p38, substrate GST-ATF2; type: biochemical, Chinese hamster; details: in vitro, 3 μg GST-ATF2
Experimental: To test whether JIP-1 competes with Jun and ATF2 for interaction with JNK, the effect of JIP-1 on transcription factor-mediated phosphorylation of exogenous substrates was analyzed using an in vitro protein kinase assay. In these experiments, Chinese hamster ovary (CHO) cells were serum-starved for one hour. In some experiments, the cells were treated with 10 ng/ml mouse interleukin 1 or 100 nM phorbol myristic acetate. JNK, p38, and ERK protein kinase activity was measured in an immune complex kinase assay using 3 μg of the substrates GST-Jun, GST-ATF2, and myelin basic protein (MBP), respectively. Protein kinase assays were performed using 40 μl 20 mM Hepes (pH 7.4), 20 mM MgCl2, 20 mM β-glycerophosphate, 2 mM dithiothreitol, 0.1 mM sodium orthovanadate, 50 μM [γ-^32P]ATP (10 Ci/mmol). After incubation for 30 minutes at 30° C., phosphorylation of substrates was analyzed by polyacrylamide gel electrophoresis and autoradiography.

JNK1 [2] = target: T1, JNK1; experiment: GST-fusion pull-down from cell lysates, Flag immunoblot: JNK1; type: binding; details: GST pull-down, Flag immunoblot
Experimental: To test whether JIP-1 binding to JNK is also isoform-dependent, a binding assay was utilized. Cell lysates (1 ml in TLB) containing JNK1, JNK2, or p38 MAP kinase, each tagged with the Flag epitope, were incubated with 5 μg GST-fusion proteins pre-bound to 10 μl glutathione-Sepharose. The GST fusion proteins used contain residues 127-202 (SEQ ID NO:15), 203-281 (SEQ ID NO:16), 164-240 (SEQ ID NO:17), or 127-281 (SEQ ID NO:4) of JIP-1. The GST-ATF2 fusion protein contains residues 1-109 of ATF2, and the GST-Jun fusion protein contains residues 1-79 of c-Jun. After incubation for one hour at 4° C. and three washes with TLB, bound proteins were detected by protein immunoblot analysis with the M2 monoclonal antibody, which is specific for the Flag epitope. Dérijard, et al., supra; Sluss et al., supra; Gupta et al., supra. […] This finding is consistent with the results of previous studies. In contrast, when GST-JIP-1 fusion proteins containing residues 127-202 or 127-281 of JIP-1 were tested in the assay, these proteins bound both JNK1 and JNK2.
The GST-JIP-1 fusion proteins containing various portions of the JIP-1 gene were used to define regions of JIP-1 that are required for JNK interaction. A GST-JIP-1 fusion protein containing residues 127-281 of JIP-1 bound both JNK1 and JNK2.
To more precisely define the JIP-1 sequence required for JNK binding activity, additional […] fusion proteins were constructed. These fusion proteins contained residues 135-202 (SEQ ID NO:18), 144-202 (SEQ ID NO:19), 154-202 (SEQ ID NO:20), 164-202 (SEQ ID NO:21), 127-143 (SEQ ID NO:22), 127-153 (SEQ ID NO:23), or 127-163 (SEQ ID NO:24) of JIP-1. Proteins containing residues 127-202, 135-202, 144-202, […], and 127-163 all bound both JNK1 and JNK2. Thus, JIP-1 residues 144-163 are important for the interaction of JIP-1 with JNK.

T1 sequence (P45983 1-384 isoform P45983-2): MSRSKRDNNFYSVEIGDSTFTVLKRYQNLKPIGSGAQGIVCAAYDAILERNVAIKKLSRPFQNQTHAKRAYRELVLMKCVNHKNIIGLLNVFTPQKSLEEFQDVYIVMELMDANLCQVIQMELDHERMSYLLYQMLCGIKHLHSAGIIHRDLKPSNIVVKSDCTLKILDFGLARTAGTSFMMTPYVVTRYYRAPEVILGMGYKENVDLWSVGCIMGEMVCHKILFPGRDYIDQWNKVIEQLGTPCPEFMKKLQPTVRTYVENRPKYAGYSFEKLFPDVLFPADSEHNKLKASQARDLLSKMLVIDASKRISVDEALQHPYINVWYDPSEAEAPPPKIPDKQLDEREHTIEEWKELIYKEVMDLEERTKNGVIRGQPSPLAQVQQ

B1: JIP-1: 660 amino acid murine cytoplasmic protein that specifically binds JNK (protein)
chain: MAERESGLGGGAASPPAASPFLGLHIASPPNFRLTHDISLEEFEDEDLSEITDECGISLQCKDTLSLRPPRAGLLSAGSSGSAGSRLQAEMLQMDLIDAAGDTPGAEDDEEEEDDELAAQRPGVGPPKAESNQDPAPRSQGQGPGTGSGDTYRPKRPTTLNLFPQVPRSQDTLNNNSLGKKHSWQDRVSRSSSPLKTGEQTPPHEHICLSDELPPQGSPVPTQDRGTSTDSPCRRSAATQMAPPSGPPATAPGGRGHSHRDRIHYQADVRLEATEEIYLTPVQRPPDPAEPTSTFMPPTESRMSVSSDPDPAAYSVTAGRPHPSISEEDEGFDCLSSPERAEPPGGGWRGSLGEPPPPPRASLSSDTSALSYDSVKYTLVVDEHAQLELVSLRPCFGDYSDESDSATVYDNCASASSPYESAIGEEYEEAPQPRPPTCLSEDSTPDEPDVHFSKKFLNVFMSGRSRSSSAESFGLFSCVINGEEHEQTHRAIFRFVPRHEDELELEVDDPLLVELQAEDYWYEAYNMRTGARGVFPAYYAIEVTKEPEHMAALAKNSCVLEISVRGVKIGVKADDALEAKGNKCSHFFQLKNISFCGYHPKNNKYFGFITKHPADHRFACHVFVSEDSTKALAESVGRAFQQFYKQFVEYTCPTEDIYLE
co-immunoprecipitation of JIP-1 with JNK1 (JNK1 [1]; COS-1 cells transfected with Flag-JIP-1 and HA-JNK1, protein immunoblot): detected in JNK1 immunoprecipitates | change in amount of JNK/JIP-1 complex on exposure to UV radiation (JNK1 [1]; UV-C 40 J/m2, one hour, co-immunoprecipitation): no significant change | phosphorylation of substrate by p38 (p38): no significant change | binding of JNK compared with binding of JNK to ATF2 or c-Jun (JNK1 [2]): significantly greater
